Assays:
[1] = biological target: Treponema denticola histidine kinase CheA (Treponema denticola) (UniProt O85747); assay: SEC-MALS; 25 °C; each sample 10 mg/mL; 50 mM MOPS pH 7.5, 150 mM KCl, 5 mM MgCl2; mixed sample 1:1 molar CheA:CheW-R_(like); CheW-R_(like) pre-incubated 15 min with 5 mM DTT; GE S200 Increase (10/300)
CheR (classical Td CheR) = biological target: T1, CheR (classical Td CheR) (Treponema denticola, UniProt Q73PZ7); assay: isothermal titration calorimetry; assay type: binding
T1 construct: purified CheR; cloning and tag not described in main text; printed residues R79, Gly152, Val180, Y218
T1 sequence (Q73PZ7 1-271): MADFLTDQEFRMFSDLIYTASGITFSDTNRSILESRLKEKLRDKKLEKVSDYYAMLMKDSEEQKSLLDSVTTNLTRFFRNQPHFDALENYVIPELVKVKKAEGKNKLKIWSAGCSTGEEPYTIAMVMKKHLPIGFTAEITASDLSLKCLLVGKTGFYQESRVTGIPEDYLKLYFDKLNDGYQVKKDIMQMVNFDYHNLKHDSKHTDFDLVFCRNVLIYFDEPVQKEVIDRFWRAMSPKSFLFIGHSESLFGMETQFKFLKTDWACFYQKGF

[2] = biological target: T2, CheW-CheRlike (CheW-Rlike) (Treponema denticola, UniProt F7IUZ1); assay: isothermal titration calorimetry; assay type: binding
T2 construct: gene cheW-1; full-length fusion: N-terminal CheW domain, 28-residue linker, C-terminal CheR-like domain; poly-His tag (pET28a), E. coli BL21(DE3); mainly monomer
T2 sequence (F7IUZ1 1-444): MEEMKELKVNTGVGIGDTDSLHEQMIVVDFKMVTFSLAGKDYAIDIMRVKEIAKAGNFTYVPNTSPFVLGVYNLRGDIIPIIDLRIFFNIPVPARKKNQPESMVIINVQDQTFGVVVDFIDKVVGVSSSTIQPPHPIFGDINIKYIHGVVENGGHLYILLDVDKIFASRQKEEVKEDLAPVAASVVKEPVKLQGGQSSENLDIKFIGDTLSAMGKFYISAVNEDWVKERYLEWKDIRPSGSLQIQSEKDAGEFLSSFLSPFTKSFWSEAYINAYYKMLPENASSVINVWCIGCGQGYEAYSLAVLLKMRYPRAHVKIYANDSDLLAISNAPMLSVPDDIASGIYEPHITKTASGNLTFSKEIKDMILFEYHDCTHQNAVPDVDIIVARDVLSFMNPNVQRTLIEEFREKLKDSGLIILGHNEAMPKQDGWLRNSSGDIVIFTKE

[3] = biological target: the molecule itself; assay: SEC-MALS; 25 °C; each sample 10 mg/mL; 50 mM MOPS pH 7.5, 150 mM KCl, 5 mM MgCl2; mixed sample 1:1 molar CheA:CheW-R_(like); CheW-R_(like) pre-incubated 15 min with 5 mM DTT; GE S200 Increase (10/300)
[4] = biological target: the molecule itself; assay: crystal structure; isolated P3 domain at 32 mg/ml, hanging drop, 0.1 M Imidazole pH 7.0, 25% PEG 400; data cut off at 1.5 Å

Question: For “Treponema denticola CheW-CheR_(like) protein (TDE1492) (natural protein)”, which stoichiometry N (CheW-R subunit per CheA dimer) [1] is on record?
Answer: 1

Question: For C[S+](CC[C@H](N)C(=O)O)C[C@H]1O[C@@H](n2cnc3c(N)ncnc32)[C@H](O)[C@@H]1O (some centres unmarked) [S-adenosylmethionine], which Kd (CheR (classical Td CheR)) is on record?
Answer: 20 ± 3.7 µM

Question: What about the Kd [2] of the same molecule?
Answer: 8.8 ± 1.9 µM

B1: Treponema denticola histidine kinase CheA (enzyme, UniProt O85747 1-801, looked up)
chain: MSDYLDINNEELLKDFFSEAEQQVEILESNVLVIEQNPEDRNSIDEIFRAAHTLKGGSATVEMLELSKFTHAMEDLLDEIRSGSVKVTGETVDLLLKSIDIIKLMLDARASGSIYSDDVSGIVNQLRSFIPAKAEKKSSKASAPKVSIPASVSPVSAPKVQASASNLDIKDYFSEYEILELAETIQKGEDLYAVIVKFDESNLMNSVGGIQVFAALKDYGSVLKTVPDFDALYEDEFHETVIYFLSSASDSKILEKAAFIGDVTLSASAERLDIKDKTPESPKPAKAAPAQSAPEASVSEVKVSEKTEEKPVQESKEQPSKPEKKQSQTSPQGSGHSSGSILRVDANRIDYLLNLVSETVITKASLNQSTIEFAELYDKFQNSSTIYKDKTRRLLDKMPEYLEKIQQGYDINSIKQDVLNEYSSLLEVFGDFDSLMKAAVTKFKSSSQNLGRISGELQEGVMKIRMVPISQIFSRFPRVVRDLSRDLNKNVQLVIEGEDTELDKSVVEDLLDPIMHCVRNSLDHGVESPEVRKGLGKPEQGILLLKASNEGNMIVIEVADDGHGIDVEAVKQKAVERGILHPNKSLTDVEAFQLVFAPGFSTSKTISSVSGRGVGLDVVKTHIEKLNGTVMVESEPNVGTRFIIKLPLTLAIIQGLLIRVGDEVYSIPITSVIESHRVKPDEINRIDNYEVFNVRDEVYSLLRLNRLFGITSAETDDDGYNYIVVVGTEEKKVGLMVDSLIGEEAVVIKPLKDQFTNSPGIAGASILGDGSVSLIIDVAQLLELGLKQEMQARERREASIW
notes: Histidine kinase CheA of Treponema denticola ATCC 35405, the only CheA homolog in the genome; amplified from Td genomic DNA; Cloned NdeI/BamHI into pet28a; co-transcribed with TDE1492; also called Td CheA; CheA-F2; source: E. coli BL21-DE3, purified (Nickel-NTA, size exclusion)
Question: Which “stoichiometry N” value [3] does the source give for B1 here?
Answer: 2

B2: Treponema denticola CheA P3 domain (dimerization domain) (domain or fragment)
chain: SILRVDANRIDYLLNLVSETVITKASLNQSTIEFAELYDKFQNSSTIYKDKTRRLLDKMPEYLEKIQQGYDINSIKQDVLNEYSSLLEVFGDFDSLMKAAVTKFKSSSQNLGRISGELQEGVMKIRMVP
notes: P3 (dimerization) domain of Treponema denticola CheA, with about 50 additional residues joining the canonical P3 helices; Cloned NdeI/EcoRI into pet28a; The printed residue number Tyr83 probably counts on the deposited construct and not on whole CheA; also called Td P3 domain; isolated P3 domain; source: E. coli BL21-DE3, purified (Nickel-NTA, size exclusion)
Question: Does B2 bind [4]?
Answer: binds
